Where two headings read alike, the source gives them in different places. Bounds are passed on as bounds.

Assay [1] concerns the target T1, human GITR (full length, on cells) (human, UniProt Q9Y5U5 26-241).
T1 construct: whole, on cells; Also used here for hGITR on the Jurkat reporter cells and on spleen cells of mice knocked-in with the human GITR gene; also called hGITR
T1 sequence (looked up): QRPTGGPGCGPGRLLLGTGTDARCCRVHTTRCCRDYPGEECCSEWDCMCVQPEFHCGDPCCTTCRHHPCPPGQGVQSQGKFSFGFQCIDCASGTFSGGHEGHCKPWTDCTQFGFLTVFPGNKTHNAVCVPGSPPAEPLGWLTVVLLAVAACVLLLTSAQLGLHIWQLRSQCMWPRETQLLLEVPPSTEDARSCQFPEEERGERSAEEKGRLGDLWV
As to the kind of experiment: flow cytometry (FACS) on 293F-hGITR cells, MFI curve fit. The method, then: (§1) The pIRES plasmid with the monkey-derived GITR full-length gene was transfected into the HEK293 cell line to construct a HEK293 stable cell line containing monkey GITR (herein referred to as HEK293-cGITR stable cell line), wherein the database accession number of the monkey GITR nucleotide sequence is XP_005545180.1. The tool antibody Tab9H6v3 was constructed with reference to the patent (US_2015_0064204_A1). […] The medium was aspirated, and the cells were incubated with chimeric anti-GITR antibody or IgG1 isotype control antibody in PBS+2% FBS for 1 hour so that the antibody binds to the GITR protein expressed on the cell surface. Cells were collected and washed, and then incubated with anti-human antibody conjugated with fluorescent dye at 4° C. for 1 hour. Mean fluorescence intensity (MFI) of chimeric anti-GITR antibodies bound to cells expressing hGITR or cGITR was determined by flow cytometry. The EC50 of the fitting curve was calculated by GraphPad Prism software. The antibody to be tested can bind to human or monkey GITR protein on the cell surface. The data in the table is the average fluorescence intensity values of the cell populations measured by MFI.

Assay [2] deals with T1, human GITR (full length, on cells). Put plainly: cell-based or functional assay.
Assay [3] deals with T2, monkey GITR (full length, on cells) (monkey).
T2 construct: whole, on cells; also called cGITR
Put plainly: flow cytometry (FACS) on 293F-cGITR cells, MFI curve fit. As to the method: as §1

The target in assay [4] is T3, hGITR-ECD-hFc (human, UniProt Q9Y5U5 26-161).
T3 construct: ECD put first; also called immunogen A; human GITR extracellular domain protein with hFc tag; not shown: human IgG Fc fragment (hFc) of the pCpC vector
T3 chain: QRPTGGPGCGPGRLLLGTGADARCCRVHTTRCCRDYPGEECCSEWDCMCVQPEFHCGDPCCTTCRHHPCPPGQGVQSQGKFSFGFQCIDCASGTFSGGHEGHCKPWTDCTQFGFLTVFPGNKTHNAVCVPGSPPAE
As to the kind of experiment: SPR (Biacore T200), hGITR-ECD-hFc immobilised on CM5 chip, antibody as analyte. The method, then: (§2) The antigen hGITR-ECD-hFc was immobilized on the chip surface in manual mode using the running buffer HBS-EP+(10 mM HEPES, 150 mM NaCl, 3 mM EDTA, 0.05% P20, pH 7.4). First, a fresh mixture of 50 mM NHS and 200 mM EDC was used to activate the flow cell 4 of the tandem S CM5 sensor chip. The antigen was then diluted to 1 μg/ml with 10 mM NaAC (pH 5.0) and was injected into flow cell 4 for approximately 40 seconds. Finally, 1 M ethanolamine was used to block the remaining active coupling sites.
Buffer flow was maintained for 600 seconds to determine dissociation. To remove the test antibody from the surface, 10 mM Glycine-HCl (pH 1.5) was injected into flow cells 1 and 4 at a flow rate of 10 μ L/min for 30 seconds. The above steps were repeated for each concentration of continuously diluted antibodies.
The KD value of each antibody was evaluated using Biacore T200 evaluation software 3.0, where flow cell 1 was used as a reference flow cell.

In assay [5] the target is T4, cGITR-ECD-hFc (rhesus; human, UniProt F7DDV8 14-149). As to the kind of experiment: ELISA, cGITR-ECD-hFc coated on plate, HRP anti-human Fab detection.
Assay [6] addresses T3, hGITR-ECD-hFc. As to the kind of experiment: ELISA, hGITR-ECD-hFc coated on plate, HRP anti-human Fab detection. As to the method:
(§3) HGITR-ECD-hFc protein and cGITR-ECD-hFc protein were diluted to 1 μg/ml with PBS hydrochloric acid buffer (pH 7.2), and 100 μl dilution was added to 96-well ELISA microplate, and incubated at 4° C. overnight. The microplate was washed three times with 300 μl/well wash buffer PBST (PBS+0.05% Tween-20), 300 μl blocking buffer (PBST+1% BSA) was added to each well, and incubated at room temperature for 2 hours. The plate was washed three times, 100 μl, 10 μg/ml anti-GITR antibody was added to each well, and was incubated at 37° C. for 1 hour. The plate was washed three times, 100 μl horseradish peroxidase (HRP) labeled anti-human Fab secondary antibody was added to each well, and was incubated at 37° C. for half an hour. The plate was washed three times, 100 μl tetramethylbenzidine (TMB) was added to each well. After 15 minutes of color development, 50 μl 1N HCl termination solution was added to each well, and the OD450 value was read with a plate reader. The EC50 of the binding curve was calculated by GraphPad Prism software.

Assay [7] addresses T2, monkey GITR (full length, on cells). Put plainly: flow cytometry (FACS) on 293F-cGITR cells, MFI curve fit. As to the method: as §1
The source holds these as a separate data set.

Assay [8] concerns the target T1, human GITR (full length, on cells). Put plainly: flow cytometry (FACS) on 293F-hGITR cells, MFI curve fit. As to the method: as §1
This is another data set of the same source.

For assay [9] the target is unchanged. Put plainly: cell-based or functional assay. This is another data set of the same source.
Assay [10] shares this target. Put plainly: cell-based or functional assay. The source holds these as a separate data set.
Assay [11] addresses T3, hGITR-ECD-hFc. As to the kind of experiment: SPR (Biacore), hGITR-ECD-hFc immobilised on CM5 chip, antibody as analyte. As to the method: as §2
Binding kinetics and affinity of the engineered fully human anti-GITR antibody to the antigen hGITR-ECD-hFc protein were tested by Biacore according to step (5) of Example 5, and the results are shown in Table 17.

Assay [12] deals with T3, hGITR-ECD-hFc. As to the kind of experiment: ELISA, hGITR-ECD-hFc coated on plate, HRP anti-human Fab detection. The method, then: as §3
The binding activity of the engineered fully human anti-GITR antibody to the hGITR-ECD-hFc protein or the cGITR-ECD-hFc protein was detected by an enzyme-linked immunosorbent assay iaccording to the step (1) of Example 5.

The target of assay [13] is T4, cGITR-ECD-hFc. As to the kind of experiment: ELISA, cGITR-ECD-hFc coated on plate, HRP anti-human Fab detection. This is another data set of the same source.

T4 sequence (F7DDV8 entry or part of it): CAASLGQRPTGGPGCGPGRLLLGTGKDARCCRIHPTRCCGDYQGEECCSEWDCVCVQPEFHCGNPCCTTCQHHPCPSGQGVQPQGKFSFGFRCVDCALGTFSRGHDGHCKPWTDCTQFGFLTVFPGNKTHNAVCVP

B1: 3503-hab064 (antibody, V domains shown)
VH: QVQLVESGGGVVQPGRSLRLSCAASGFTFSSYGMHWVRQAPGKGLEWVAVIWYETSNKYYADSVKGRFTISRDNSKNTLYLQMNNLRAEDTAVYYCARYGGNSGWYWYFDLWGRGTLVTVSS
VL: DIQLTQSPSFLSASVGDRVTITCRASQGISSFLAWYQQKPGTAPKLLIYAASTLQSGVPSRFSGSGSGTEFTLTISSLQPEDFATYCCQQLNSYPFTFGQGTKLEIK
notes: also called 265G9A11; fully human anti-GITR antibody
As to B1, the EC50 in assay [1] was determined as 0.194 nM. In assay [2], the “Activation of NF-κB activity, EC50 (nM), Coupling” value was 2.8 nM and the “Activation of NF-κB activity, EC50 (nM), Non-coupling” value is 0.177 nM. Moreover, in [3], the EC50 was found to be 0.254 nM. In the assay with hGITR-ECD-hFc [4], this molecule came in with a Kd of 0.592 nM, a koff of 0.000315 s⁻¹ and a kon of 532000 M⁻¹ s⁻¹. The molecule further displayed an EC50 with cGITR-ECD-hFc [5] of 0.0369 nM. In addition, it took 0.0443 nM to reach a half-maximal effect with hGITR-ECD-hFc [6] (EC50).

B2: 3503-mAb070 (antibody, V domains shown)
VH: QVQLVESGGGVVQPGRSLRLSCAASGFTFSSYGMHWVRQAPGKGLEWVAVIWYETSNKFYVDSVKGRFTISRDNSKNTLYLQMNSLRAEDTAVYYCARYGASSGWYWYFDLWGRGTLVTVSS
VL: DIQLTQSPSFLSASVGDRVTITCRASQGISSFLAWYQQKPGKAPKLLIYAASTLQSGVPSRFSGSGSGTEFTLTISSLQPEDFATYCCQQLNSYPFTFGQGTKLEIK
notes: Chimeric antibody purified from hybridoma supernatant of Harbour H2L2 mice: human variable regions with rat constant regions; also called 272G5E1; chimeric anti-GITR antibody
On to B2, for which a half-maximal response in assay [7] (EC50) required 0.198 nM. The EC50 in assay [8] stood at 0.358 nM. Besides, in assay [9], the “Activation of NF-κB activity, EC50 (nM), Coupling (Crosslinking)” value (from here on “Activation … (Crosslinking)”) was greater than 0.09 nM and the “Activation of NF-κB activity, EC50 (nM), Non-coupling (Non-Crosslinking)” value (“Activation … (Non-Crosslinking)” below) came out at 0.062 nM.

B3: 3503-hab076 (antibody, V domains shown)
VH: QVQLVESGGGVVQPGRSLRLSCAASGFTFSSYGMHWVRQAPGKGLEWVAVIWYETSNKYYADSVKGRFTISRDNSKNTLYLQMNSLRAEDTAVYYCARYGASSGWYWYFDLWGRGTLVTVSS
VL: DIQLTQSPSFLSASVGDRVTITCRASQGISSYLAWYQQKPGKAPKLLIYAASTLQSGVPSRFSGSGSGTEFTLTISSLQPEDFATYCCQQLNSYPFTFGQGTKLEIK
notes: also called 277C12G4; fully human anti-GITR antibody
In the case of B3, the EC50 was 0.173 nM in assay [1], 0.58 nM in [3], 0.0551 nM with cGITR-ECD-hFc [5] and 0.0593 nM with hGITR-ECD-hFc [6]. The “Activation of NF-κB activity, EC50 (nM), Coupling” value in assay [2] amounted to 1.33 nM. Besides, in assay [2], the “Activation of NF-κB activity, EC50 (nM), Non-coupling” value came out at 0.127 nM. The molecule also gave a Kd with hGITR-ECD-hFc [4] of 1.03 nM. This molecule yielded a koff with hGITR-ECD-hFc [4] of 0.000684 s⁻¹. In the assay with hGITR-ECD-hFc [4], the kon is 664000 M⁻¹ s⁻¹.

B4: 3503-mAb064 (antibody, V domains shown)
VH: QVQLVESGGGVVQPGRSLRLSCAASGFTFSSYGMHWVRQAPGKGLEWVAVIWYETSNKYYADSVKGRFTISRDNSKNTLYLQMNNLRAEDTAVYYCARYGGNSGWYWYFDLWGRGTLVTVSS
VL: DIQLTQSPSFLSASVGDRVTITCRASQGISSFLAWYQQKPGTAPKLLIYAASTLQSGVPSRFSGSGSGTEFTLTISSLQPEDFATYCCQQLNSYPFTFGQGTKLEIK
notes: Chimeric antibody purified from hybridoma supernatant of Harbour H2L2 mice: human variable regions with rat constant regions; also called 265G9A11; chimeric anti-GITR antibody
Consider B4, for which the EC50 in assay [7] came out at 0.404 nM. The molecule further registered an EC50 in assay [8] of 0.385 nM. Further, in assay [9], the “Activation … (Crosslinking)” value turned out to be 0.101 nM and the “Activation … (Non-Crosslinking)” value was greater than 0.2 nM.

B5: 3503-mAb076 (antibody, V domains shown)
VH: QVQLVESGGGVVQPGRSLRLSCAASGFTFSSYGMHWVRQAPGKGLEWVAVIWYETSNKYYADSVKGRFTISRDNSKNTLYLQMNSLRAEDTAVYYCARYGASSGWYWYFDLWGRGTLVTVSS
VL: DIQLTQSPSFLSASVGDRVTITCRASQGISSYLAWYQQKPGKAPKLLIYAASTLQSGVPSRFSGSGSGTEFTLTISSLQPEDFATYCCQQLNSYPFTFGQGTKLEIK
notes: Chimeric antibody purified from hybridoma supernatant of Harbour H2L2 mice: human variable regions with rat constant regions; also called 277C12G4; chimeric anti-GITR antibody
B5: a half-maximal effect in assay [7] (EC50) was put at 0.226 nM. In [8], this molecule registered an EC50 of 0.152 nM. Moreover, in assay [9], the “Activation … (Crosslinking)” value is greater than 0.27 nM and the “Activation … (Non-Crosslinking)” value is greater than 0.09 nM.

B6: 3503-mAb019 (antibody, V domains shown)
VH: QVQLVESGGGVVQPGRSLRLSCAASGFTFSSYGMHWVRQAPGKGLEWVAVIWYAGSRKFYADSVEGRFTISRDNSKNTLYLQMSSVRPEDTAVYYCARGGSLDGGFFYYGMDVWGQGTTVTVSS
VL: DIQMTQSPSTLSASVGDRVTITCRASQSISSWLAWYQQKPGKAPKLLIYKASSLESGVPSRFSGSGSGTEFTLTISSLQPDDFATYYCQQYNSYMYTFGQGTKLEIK
notes: Chimeric antibody purified from hybridoma supernatant of Harbour H2L2 mice: human variable regions with rat constant regions; also called 96A10H9; chimeric anti-GITR antibody
Turning to B6, the EC50 in assay [7] worked out at 0.01 nM; in assay [8] it was 0.07 nM. Moreover, the “Activation … (Crosslinking)” value in assay [9] came out at 12.5 nM.

B7: 3503-hab019e2 (antibody, V domains shown)
VH: QVQLVESGGGVVQPGRSLRLSCAASGFTFSSYGMHWVRQAPGKGLEWVAVIWYAGSRKFYADSVEGRFTISRDNSKNTLYLQMNSLRAEDTAVYYCARGGSLEGGFFYYGMDVWGQGTTVTVSS
VL: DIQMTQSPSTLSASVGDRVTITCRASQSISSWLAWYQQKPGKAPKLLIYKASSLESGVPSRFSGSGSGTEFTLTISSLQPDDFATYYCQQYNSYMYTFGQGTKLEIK
notes: also called 96A10H9; engineered fully human anti-GITR antibody
B7: the EC50 in [7] turned out to be 0.31 nM. Also, in [10], the “Activation of NF-κB activity, EC50 (nM), Coupling” value was 1.74 nM and the “Activation of NF-κB activity, EC50 (nM), Non-coupling” value stood at 0.139 nM. In the assay with hGITR-ECD-hFc [11], this molecule displayed a Kd of 0.384 nM, a koff of 0.00023 s⁻¹ and a kon of 600000 M⁻¹ s⁻¹. In the assay with hGITR-ECD-hFc [12], this molecule gave an EC50 of 0.089 nM. A half-maximal response in assay [8] (EC50) required 0.155 nM. Besides, a half-maximal response with cGITR-ECD-hFc [13] (EC50) required 0.096 nM.

The values are drawn from patent publication US20220119541A1 (PHARMAEXPLORER, published 2022).
